Experimental findings from the supplement of paper PMC7877785 are described below.

± gives the uncertainty stated by the source.

This series is described as follows: self-splicing fitness, log relative to wild type (ln ratio); higher = more splicing; Tetrahymena group I intron in knt gene, E. coli kanamycin selection, DiMSum; sequences stand for … in CUCUCU…GGAGGGAAAAGUUAUCAGGCAUGCACCUGGUAGCUAGUCUUUAAACCAAUAGAUUGCAUCGGUUUAAAAGGCAAGACCGUCAAAUUGCGGGAAAGGGGUCAACAGCCGUUCAGUACCAAGUCUCAGGGGAAACUUUGAGAUGGCCUUGCAAAGGGUAUGGUAAUAAGCUGACGGACAUGGUCCUAACCACGCAGCCAAGUCCUAAGUCAACAGAUCUUCUGUUGAUAUGGAUGCAGUUCACAGACUAAAUGUCGGUCGGGGAAGAUGUAUUCUUCUCAUAAGAUAUAGUCGGACCUCUCCUUAAUGGGAGCUAGCGGAUGAAGUGAUGCAACACUGGAGCCGCUGGGAACUAAUUUGUAUGCGAAAGUAUAUUGAUUAGUUUUGGAGUACUCGUGGUCG
The essentials: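 Colonies from six replicate transformations of E. coli BL21(DE3) were pooled and amplicon-sequenced on an Illumina HiSeq 2500. The library placed an intron with all eight P1ex-region nucleotides randomised inside the knt kanamycin-resistance gene on pET-22b(+), and cells grew overnight at 37°C or 30°C on LB agar with or without 25 μg/mL kanamycin (plus 100 μg/mL carbenicillin, 50 μM IPTG, 0.2% rhamnose). Fitness is the DiMSum error-weighted combination of wild-type-normalised replicate fold changes, kanamycin versus none.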

In the case of UAACAGCAAUAUUACGGGUU, the “self-splicing fitness (ln)” value reads like this: (30 °C) -3.91 ± 0.15; (37 °C) -3.58 ± 0.19.

For CGCCAGCAAUAUUACGUGAA, the “self-splicing fitness (ln)” value by setting is: (30 °C) -1.76 ± 0.1; (37 °C) -1.1 ± 0.14.

In the case of CGUCAGCAAUAUUACGGGAC, the “self-splicing fitness (ln)” value (30 °C) was -3.95 ± 0.25 and the “self-splicing fitness (ln)” value (37 °C) is -1.73 ± 0.23.

For GUUGAGCAAUAUUACGUUAG, the “self-splicing fitness (ln)” value is, setting by setting: (30 °C) -4.58 ± 0.41; (37 °C) -2.82 ± 0.43.

As to UCGAAGCAAUAUUACGGUUU, the “self-splicing fitness (ln)” value was -3.83 ± 0.21 (30 °C) and -2.72 ± 0.29 (37 °C).

With GUCAAGCAAUAUUACGAUUC, the “self-splicing fitness (ln)” value is -1.76 ± 0.17 (30 °C) and 0.0525 ± 0.15 (37 °C).

In the case of CUUCAGCAAUAUUACGUCAA, the “self-splicing fitness (ln)” value (30 °C) is -1.25 ± 0.34.

For UUUCAGCAAUAUUACGGUCU, the “self-splicing fitness (ln)” value runs as follows: (30 °C) -1.45 ± 0.086; (37 °C) -0.667 ± 0.087.

Consider UUUCAGCAAUAUUACGUGAC, for which the “self-splicing fitness (ln)” value was -2.99 ± 0.22 (30 °C) and -1.73 ± 0.48 (37 °C).

As to CGUUAGCAAUAUUACGAAGC, the “self-splicing fitness (ln)” value (30 °C) is -2.28 ± 0.43.

For the sequence CGUAAGCAAUAUUACGGGAA, the “self-splicing fitness (ln)” value by setting is: (30 °C) -3.04 ± 0.41; (37 °C) -1.9 ± 0.44.

As to GAGUAGCAAUAUUACGCGCU, the “self-splicing fitness (ln)” value (37 °C) was -0.5 ± 0.39.

Consider CGCUAGCAAUAUUACGGUCA, for which the “self-splicing fitness (ln)” value was -0.0527 ± 0.076 (30 °C) and 0.137 ± 0.079 (37 °C).

In the case of GCAUAGCAAUAUUACGGGGA, the “self-splicing fitness (ln)” value is, setting by setting: (30 °C) -3.23 ± 0.28; (37 °C) -2.37 ± 0.19.

For the sequence AAGUAGCAAUAUUACGCACC, the “self-splicing fitness (ln)” value was -1.16 ± 0.12 (30 °C) and -0.367 ± 0.2 (37 °C).

Regarding UGCAAGCAAUAUUACGAAUA, the “self-splicing fitness (ln)” value (30 °C) is -1.88 ± 0.12 and the “self-splicing fitness (ln)” value (37 °C) was -1.04 ± 0.13.

UUCCAGCAAUAUUACGUCCU: the “self-splicing fitness (ln)” value by setting is: (30 °C) -2.67 ± 0.21; (37 °C) -2.29 ± 0.32.

For AAACAGCAAUAUUACGUCCA, the “self-splicing fitness (ln)” value by setting is: (30 °C) -1.19 ± 0.065; (37 °C) -0.777 ± 0.073.

Regarding UCUAAGCAAUAUUACGUUUA, under “37 °C”, the “self-splicing fitness (ln)” value was -1.69 ± 0.37.

Take CUCCAGCAAUAUUACGCAGU: the “self-splicing fitness (ln)” value is, setting by setting: (30 °C) -3.59 ± 0.21; (37 °C) -2.04 ± 0.23.

Turning to AUUGAGCAAUAUUACGUGGG, where the note is “37 °C”, the “self-splicing fitness (ln)” value is -1.57 ± 0.19.

On to CUGGAGCAAUAUUACGACUG, for which the “self-splicing fitness (ln)” value worked out at 0.202 ± 0.15 (30 °C) and 0.00578 ± 0.21 (37 °C).

Turning to GCCCAGCAAUAUUACGAGCU, the “self-splicing fitness (ln)” value (30 °C) was -3.47 ± 0.19 and the “self-splicing fitness (ln)” value (37 °C) is -1.89 ± 0.15.

As for AGAUAGCAAUAUUACGGUUG, the “self-splicing fitness (ln)” value is -3.03 ± 0.17 (30 °C) and -2.57 ± 0.29 (37 °C).

Take CGCAAGCAAUAUUACGAUUG: the “self-splicing fitness (ln)” value is -2.21 ± 0.056 (30 °C) and -1.01 ± 0.07 (37 °C).

Regarding ACAUAGCAAUAUUACGUCUG, the “self-splicing fitness (ln)” value is, setting by setting: (30 °C) -1.24 ± 0.071; (37 °C) -0.845 ± 0.09.

Regarding GCACAGCAAUAUUACGAGGU, the “self-splicing fitness (ln)” value runs as follows: (30 °C) -1.85 ± 0.095; (37 °C) 0.0148 ± 0.11.

Regarding GCUGAGCAAUAUUACGGCAU, the “self-splicing fitness (ln)” value by setting is: (30 °C) -2.59 ± 0.2; (37 °C) -1.82 ± 0.18.

For the sequence GAGGAGCAAUAUUACGGAGA, the “self-splicing fitness (ln)” value was -2.95 ± 0.2 (30 °C) and -2.25 ± 0.27 (37 °C).

In the case of UGAAAGCAAUAUUACGCCGA, the “self-splicing fitness (ln)” value reads like this: (30 °C) -1.61 ± 0.14; (37 °C) -0.339 ± 0.14.

In the case of CGUCAGCAAUAUUACGUGCA, the “self-splicing fitness (ln)” value by setting is: (30 °C) -0.497 ± 0.057; (37 °C) -0.0444 ± 0.072.

On to UUGUAGCAAUAUUACGGGCU, for which the “self-splicing fitness (ln)” value is, setting by setting: (30 °C) -2.88 ± 0.29; (37 °C) -1.62 ± 0.22.

As to GACCAGCAAUAUUACGAGCG, the “self-splicing fitness (ln)” value was -2.08 ± 0.067 (30 °C) and -0.434 ± 0.077 (37 °C).

As for CUAGAGCAAUAUUACGCGAC, the “self-splicing fitness (ln)” value by setting is: (30 °C) -0.657 ± 0.13; (37 °C) 0.181 ± 0.16.

Regarding AUAUAGCAAUAUUACGAGCA, the “self-splicing fitness (ln)” value (30 °C) is -2.32 ± 0.24 and the “self-splicing fitness (ln)” value (37 °C) was -0.917 ± 0.18.

Turning to AUAUAGCAAUAUUACGUAAC, the “self-splicing fitness (ln)” value is -1.11 ± 0.21 (30 °C) and -1.86 ± 0.38 (37 °C).

Take CGGUAGCAAUAUUACGGGGU: the “self-splicing fitness (ln)” value (30 °C) was -4.08 ± 0.3 and the “self-splicing fitness (ln)” value (37 °C) is -2.81 ± 0.22.

As for GCUAAGCAAUAUUACGAACG, the “self-splicing fitness (ln)” value (30 °C) is -0.806 ± 0.068 and the “self-splicing fitness (ln)” value (37 °C) is 0.22 ± 0.097.

GCAUAGCAAUAUUACGAAUC: the “self-splicing fitness (ln)” value was -2.12 ± 0.33 (30 °C) and -1.55 ± 0.32 (37 °C).
